Laboratory results taken from article doi:10.1101/844506v1.

Substrate: O=[N+]([O-])c1ccc(O[C@@H]2O[C@H](CO)[C@@H](O)[C@H](O)[C@H]2O)cc1
Test: purified protein
Conditions: no added glucose

B1: B8CYA8 (β-glucosidase from Halothermothrix orenii) (Halothermothrix orenii H 168) (protein)
chain: MAKIIFPEDFIWGAATSSYQIEGAFNEDGKGESIWDRFSHTPGKIENGDTGDIACDHYHLYREDIELMKEIGIRSYRFSTSWPRILPEGKGRVNQKGLDFYKRLVDNLLKANIRPMITLYHWDLPQALQDKGGWTNRDTAKYFAEYARLMFEEFNGLVDLWVTHNEPWVVAFEGHAFGNHAPGTKDFKTALQVAHHLLLSHGMAVDIFREEDLPGEIGITLNLTPAYPAGDSEKDVKAASLLDDYINAWFLSPVFKGSYPEELHHIYEQNLGAFTTQPGDMDIISRDIDFLGINYYSRMVVRHKPGDNLFNAEVVKMEDRPSTEMGWEIYPQGLYDILVRVNKEYTDKPLYITENGAAFDDKLTEEGKIHDEKRINYLGDHFKQAYKALKDGVPLRGYYVWSLMDNFEWAYGYSKRFGLIYVDYENGNRRFLKDSALWYREVIEKGQVEAN
  Km: 1800 ± 100 µM
  kcat: 339.0 ± 28.3 s⁻¹
